For this assay, the target named is HA head of A/American black duck/New Brunswick/00464/2010(H4N6) (Influenza A virus A/American black …, strain). Description: crystal structure. Conditions: both partners purified.

B1: S8V1-157 Fab (crystallization) (Fab, V domains shown)
VH: EVQLVQSGAEVKKPGASVKVSCKVSGYRLTALSMHWVRQAPGKGLEWMGGFDPEEDETIYAQNFQGRVTLTEDTSTDTVYMELSSLRSEDTGVYYCATLMGANPFDYWGQGTLIIVSG
VL: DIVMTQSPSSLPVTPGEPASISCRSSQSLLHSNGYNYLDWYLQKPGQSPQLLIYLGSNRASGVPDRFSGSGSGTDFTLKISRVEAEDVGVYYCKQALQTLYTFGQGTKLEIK
notes: source: 293F, transient transfection, purified (TALON resin, Superdex 200)
As to B1, the binding result was “binds”.

Source of the values: article PMC12153317 (mBio, 2025).
